Measurements: PMC2921000 (Nature, 2010)

Biological target: T1, Spc98p (Saccharomyces cerevisiae, UniProt P53540 1-846)
T1 sequence: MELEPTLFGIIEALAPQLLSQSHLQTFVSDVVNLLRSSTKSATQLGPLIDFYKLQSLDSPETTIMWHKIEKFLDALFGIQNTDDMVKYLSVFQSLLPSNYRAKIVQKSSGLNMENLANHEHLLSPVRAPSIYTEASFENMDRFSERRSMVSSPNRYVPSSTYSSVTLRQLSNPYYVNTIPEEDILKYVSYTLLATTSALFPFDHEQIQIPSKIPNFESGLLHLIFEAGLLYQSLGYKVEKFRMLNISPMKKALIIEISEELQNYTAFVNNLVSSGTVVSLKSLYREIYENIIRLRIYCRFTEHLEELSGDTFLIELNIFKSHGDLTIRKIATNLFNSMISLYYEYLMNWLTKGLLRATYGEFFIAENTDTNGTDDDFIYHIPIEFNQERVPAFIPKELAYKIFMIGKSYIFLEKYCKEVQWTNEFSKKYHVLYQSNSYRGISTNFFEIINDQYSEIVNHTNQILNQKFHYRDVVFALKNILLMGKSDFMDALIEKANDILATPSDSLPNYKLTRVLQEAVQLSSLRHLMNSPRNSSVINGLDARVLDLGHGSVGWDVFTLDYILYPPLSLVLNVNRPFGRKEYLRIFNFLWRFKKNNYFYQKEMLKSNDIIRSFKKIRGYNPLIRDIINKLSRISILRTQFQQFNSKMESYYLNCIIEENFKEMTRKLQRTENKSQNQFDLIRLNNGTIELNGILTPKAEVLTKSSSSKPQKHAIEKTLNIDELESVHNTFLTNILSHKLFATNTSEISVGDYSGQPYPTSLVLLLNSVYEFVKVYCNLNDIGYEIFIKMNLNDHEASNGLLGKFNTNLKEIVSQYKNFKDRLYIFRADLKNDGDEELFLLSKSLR
Assay: cryo-EM structure

binding result: binds
B1: Spc97p (natural protein)
chain: MEIKEVDDRAELLRYTNNIPLLGKLVNHQPLWSTNPKLKSFSLEKISAPDQRRVQEALVVKDLLNVLIGLEGTYIRYFNDYEPSDPETPIEFKIAKKMDPSFKTFSRRIVRYGKQYMILTRAYEKWSDTSFGMVLQRFAYEIRRFLEDVYLKTLVERLERDFNKVPNFSIRELEQIINETEVNKQMELLYNIYEEIFREIEERRTNQSSQEDFNNFMDSMKNESSLHLRLMVAFDTTVYPVPKGGAILKIFQQKILENLGDRSSVMFLKKLLNNISQDYCTMLYEWLTQGILNDPYQEFMTYDDLEGKTDNIFDTRDRAWDTQYFIRKDVLLRDCDSEEDKNLLFKMLRTGILLKVVRASLQIPTIPSNSSDITIQEINDFADLMEGSNLELYVDKCYSRANEIFLKLFFQGYDLINVLKHLQQIFLGYQSGHNVLKFLTKNMGELTKHYRNDNNANYDKLLQNFELERQSENPNNLMRQLLMIQFDTETLPQVLSHYLQIYPEVPENNSANDDSDPLMHANNFKNMNAILFDELSKERTGAYHGSNLELYTPKSAIYHLKFDINIPYPLNIIISRTCMIKYQIILRYQLVLQYHSRLLDETWMDLNKTPSWKYRGYSHTVKRRIVRATRVLHAKMNHFIKTIMEYFNQNVIDKEVYSLEKCYRNPTLAVAIQNELEGGLTNIMTNRCLSDLIPLQLQIFDIVYKFCKFIKSMRAKLCQLDPVLYEKHKSGMMKTLNEGYRTNNGGQEDVGYQEDAALELIQKLIEYISNASSIFRKCLINFTQELSTEKFDFYDSSSVDAAGIERVLYSIVPPRSASASSQR
